Laboratory results published in patent US20230416396A1 (Regeneron, published 2023).

B1: REGN9682 (bispecific antibody, human IgG4 S228P, kappa)
heavy 1: EVQLVESGGGLVQPGRSLRLSCGASGFTFDDYVMHWVRQIPGKGLEWVAGISWNSGSIGYADSVKGRFTISRDNAKNSLYLQMNSLRAEDTALYFCAKDHIDPYSSSLYYYYGMDVWGQGTTVTVSSASTKGPSVFPLAPCSRSTSESTAALGCLVKDYFPEPVTVSWNSGALTSGVHTFPAVLQSSGLYSLSSVVTVPSSSLGTKTYTCNVDHKPSNTKVDKRVGGGGSGGGGSGGGGSEVQLVESGGGLVQPGRSLRLSCGASGFTFDDYVMHWVRQIPGKGLEWVAGISWNSGSIGYADSVKGRFTISRDNAKNSLYLQMNSLRAEDTALYFCAKDHIDPYSSSLYYYYGMDVWGQGTTVTVSSASTKGPSVFPLAPCSRSTSESTAALGCLVKDYFPEPVTVSWNSGALTSGVHTFPAVLQSSGLYSLSSVVTVPSSSLGTKTYTCNVDHKPSNTKVDKRVESKYGPPCPPCPAPPVAGPSVFLFPPKPKDTLMISRTPEVTCVVVDVSQEDPEVQFNWYVDGVEVHNAKTKPREEQFNSTYRVVSVLTVLHQDWLNGKEYKCKVSNKGLPSSIEKTISKAKGQPREPQVYTLPPSQEEMTKNQVSLTCLVKGFYPSDIAVEWESNGQPENNYKTTPPVLDSDGSFFLYSRLTVDKSRWQEGNVFSCSVMHEALHNRFTQKSLSLSPGK
heavy 2: EVQLVESGGGLVQPGRSLRLSCAASGFTFDDYAMHWVRQAPGKGLEWVSGISWKSDNIGYADSVKGRFTISRDNAKNSLYLQMNSLRAEDTALYYCAKALGGWKFDYYYGMDVWGQGTTVTVSSASTKGPSVFPLAPCSRSTSESTAALGCLVKDYFPEPVTVSWNSGALTSGVHTFPAVLQSSGLYSLSSVVTVPSSSLGTKTYTCNVDHKPSNTKVDKRVESKYGPPCPPCPAPPVAGPSVFLFPPKPKDTLMISRTPEVTCVVVDVSQEDPEVQFNWYVDGVEVHNAKTKPREEQFNSTYRVVSVLTVLHQDWLNGKEYKCKVSNKGLPSSIEKTISKAKGQPREPQVYTLPPSQEEMTKNQVSLTCLVKGFYPSDIAVEWESNGQPENNYKTTPPVLDSDGSFFLYSRLTVDKSRWQEGNVFSCSVMHEALHNHYTQKSLSLSLGK
light: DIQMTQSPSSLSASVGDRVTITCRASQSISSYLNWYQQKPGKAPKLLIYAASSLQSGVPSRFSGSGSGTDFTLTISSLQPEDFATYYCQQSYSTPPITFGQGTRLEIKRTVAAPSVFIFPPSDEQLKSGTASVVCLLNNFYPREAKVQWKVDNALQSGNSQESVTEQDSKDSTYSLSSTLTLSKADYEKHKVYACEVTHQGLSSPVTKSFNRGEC
notes: 1+2 format, hIgG4P-PVA; The linker between the two 4-1BB Fabs is (G4S)3; also called CD38x4-1BB (1 + 2), (G4S)3; 26812P2 x 35333P2 (IN) + 35333P2 (OUT)
B2: REGN9686 (bispecific antibody, human IgG4 S228P, kappa)
heavy 1: EVQLVESGGGLVQPGRSLRLSCGASGFTFDDYVMHWVRQIPGKGLEWVAGISWNSGSIGYADSVKGRFTISRDNAKNSLYLQMNSLRAEDTALYFCAKDHIDPYSSSLYYYYGMDVWGQGTTVTVSSASTKGPSVFPLAPCSRSTSESTAALGCLVKDYFPEPVTVSWNSGALTSGVHTFPAVLQSSGLYSLSSVVTVPSSSLGTKTYTCNVDHKPSNTKVDKRVESKYGPPGGGGSGGGGSEVQLVESGGGLVQPGRSLRLSCGASGFTFDDYVMHWVRQIPGKGLEWVAGISWNSGSIGYADSVKGRFTISRDNAKNSLYLQMNSLRAEDTALYFCAKDHIDPYSSSLYYYYGMDVWGQGTTVTVSSASTKGPSVFPLAPCSRSTSESTAALGCLVKDYFPEPVTVSWNSGALTSGVHTFPAVLQSSGLYSLSSVVTVPSSSLGTKTYTCNVDHKPSNTKVDKRVESKYGPPCPPCPAPPVAGPSVFLFPPKPKDTLMISRTPEVTCVVVDVSQEDPEVQFNWYVDGVEVHNAKTKPREEQFNSTYRVVSVLTVLHQDWLNGKEYKCKVSNKGLPSSIEKTISKAKGQPREPQVYTLPPSQEEMTKNQVSLTCLVKGFYPSDIAVEWESNGQPENNYKTTPPVLDSDGSFFLYSRLTVDKSRWQEGNVFSCSVMHEALHNRFTQKSLSLSPGK
heavy 2: B1 heavy 2
light: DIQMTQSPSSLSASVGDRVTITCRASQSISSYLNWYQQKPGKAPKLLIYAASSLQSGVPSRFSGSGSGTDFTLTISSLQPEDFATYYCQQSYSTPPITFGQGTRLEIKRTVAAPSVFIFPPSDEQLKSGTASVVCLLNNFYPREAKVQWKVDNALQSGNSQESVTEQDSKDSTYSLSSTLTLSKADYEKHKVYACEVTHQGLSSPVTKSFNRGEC
notes: 1+2 format, hIgG4P-PVA; The linker between the two 4-1BB Fabs is (G4S)2; also called CD38x4-1BB (1 + 2), (G4S)2; 26812P2 x 35333P2 (IN) + 35333P2 (OUT)

How the values were obtained:
human 4-1BB on cells [1] = biological target: T1, human 4-1BB on cells (human, UniProt Q07011 24-255); experiment: cell-based or functional assay
human 4-1BB on cells [2] = biological target: T1, human 4-1BB on cells; experiment: cell-based or functional assay; remark: listed apart in the source
human 4-1BB on cells [3] = biological target: T1, human 4-1BB on cells; experiment: cell-based or functional assay; remark: listed apart in the source
[4] = biological target: T2, human 4-1BB expressed with a C-terminal myc-myc-hexahistidine tag (human, UniProt Q07011 24-186); experiment: SPR Biacore 8k, antibody captured by anti-human Fc, h4-1BB.mmH as analyte, 25 C
T2 construct: also called h4-1BB.mmH; REGN3584; not shown: C-terminal myc-myc-hexahistidine tag
Description: (§1) Equilibrium dissociation constants (KD values) for human 4-1BB expressed with a C-terminal myc-myc-hexahistidine tag (h4-1BB.mmH, REGN3584) or human 4-1BB expressed with a C-terminal murine Fc tag (h4-1BB.mFc, REGN3585) binding to purified anti-CD38×4-1BB 1+2 antibodies were determined using a real-time surface plasmon resonance biosensor using a Biacore 8k instrument. The CM5 Biacore sensor surface was derivatized by amine coupling with a monoclonal mouse anti-human Fc antibody (REGN2567). All Biacore binding studies were performed in a buffer composed of 0.01M HEPES pH 7.4, 0.15M NaCl, 3 mM EDTA, 0.05% v/v Surfactant P20 (HBS-EP running buffer). […] Antibody-reagent association was monitored for 5 minutes while dissociation in HBS-EP running buffer was monitored for 10 minutes. At the end of each cycle, the anti-CD38×4-1BB 1+2 antibody capture surface was regenerated using a 10 second injection of 20 mM phosphoric acid. All binding kinetics experiments were performed at 25° C.
(§2) Kinetic association (kₐ) and dissociation (kd) rate constants were determined by fitting the real-time sensorgrams to a 1:1 binding model using Cytiva Insight curve fitting software. Binding dissociation equilibrium constants (KD) and dissociative half-lives (t/2) were calculated from the kinetic rate constants as: […]

[5] = biological target: T3, human 4-1BB expressed with a C-terminal murine Fc tag (human, UniProt Q07011 24-186); experiment: SPR Biacore 8k, antibody captured by anti-human Fc, h4-1BB.mFc as analyte, 25 C
T3 construct: also called h4-1BB.mFc; REGN3585; not shown: C-terminal murine Fc tag
Description: as §1, §2

[6] = biological target: T3, human 4-1BB expressed with a C-terminal …; experiment: SPR Biacore 4000, h4-1BB.mFc captured by anti-mouse Fc, antibody as analyte, 25 C
Description: Equilibrium dissociation constants (KD values) for human 4-1BB expressed with a C-terminal murine Fc tag (h4-1BB.mFc, REGN3585) binding to purified anti-CD38×4-1BB 1+2 antibodies were determined using a real-time surface plasmon resonance biosensor using a Biacore 4000 instrument. […] All Biacore binding studies were performed in a buffer composed of 0.01M HEPES pH 7.4, 0.15M NaCl, 3 mM EDTA, 0.05% v/v Surfactant P20 (HBS-EP running buffer). Different concentrations of CD38×4-1BB 1+2 constructs prepared in HBS-EP running buffer (ranging from 100 to 6.25 nM in 4-fold serial dilutions) were injected over the h4-1BB.mFc (REGN3585) captured surface at a flow rate of 30 μL/minute. Antibody-reagent association was monitored for 5 minutes while dissociation in HBS-EP running buffer was monitored for 10 minutes. At the end of each cycle, the h4-1BB.mFc capture surface was regenerated using a 40 sec injection of 10 mM glycine, pH 1.5. All binding kinetics experiments were performed at 25° C.
as §2

T1 sequence (Q07011 24-255): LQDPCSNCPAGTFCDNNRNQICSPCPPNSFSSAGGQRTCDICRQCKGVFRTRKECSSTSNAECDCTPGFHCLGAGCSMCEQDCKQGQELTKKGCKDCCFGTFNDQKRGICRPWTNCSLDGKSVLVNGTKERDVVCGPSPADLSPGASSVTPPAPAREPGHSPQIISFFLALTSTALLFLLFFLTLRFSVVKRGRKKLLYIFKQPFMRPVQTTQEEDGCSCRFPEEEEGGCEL
T3 sequence (Q07011 24-186 limits assumed): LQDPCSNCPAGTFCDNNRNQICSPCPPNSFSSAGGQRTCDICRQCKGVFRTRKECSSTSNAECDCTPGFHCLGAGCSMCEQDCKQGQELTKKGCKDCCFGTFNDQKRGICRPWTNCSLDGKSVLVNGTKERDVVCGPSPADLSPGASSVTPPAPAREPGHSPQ
T2 sequence (Q07011 24-186 limits assumed): as above

Binder	EC50 of IL-2 release, T cells + HEK293/CD20/CD38 + REGN2281 (human 4-1BB on cells [1]) [nM]	EC50 of IL-2 release, T cells + MOLP-8 + REGN5458 (human 4-1BB on cells [1]) [nM]	EC50 of IL-2 release, T cells + NALM-6 (human 4-1BB on cells [1]) [nM]	MAX IL-2 release, T cells + HEK293/CD20 + REGN2281 (human 4-1BB on cells [1]) [pg/mL]	MAX IL-2 release, T cells + HEK293/CD20/CD38 + REGN2281 (human 4-1BB on cells [1]) [pg/mL]	MAX IL-2 release, T cells + MOLP-8 + IsoC (human 4-1BB on cells [1]) [pg/mL]	MAX IL-2 release, T cells + MOLP-8 + REGN5458 (human 4-1BB on cells [1]) [pg/mL]	MAX IL-2 release, T cells + NALM-6 (human 4-1BB on cells [1]) [pg/mL]	EC50 of IFNγ release, T cells + HEK293/CD20/CD38 + REGN2281 (human 4-1BB on cells [2]) [nM]	EC50 of IFNγ release, T cells + MOLP-8 + REGN5458 (human 4-1BB on cells [2]) [nM]	MAX IFNγ release, T cells + HEK293/CD20 + REGN2281 (human 4-1BB on cells [2]) [pg/mL]	MAX IFNγ release, T cells + HEK293/CD20/CD38 + REGN2281 (human 4-1BB on cells [2]) [pg/mL]	MAX IFNγ release, T cells + MOLP-8 + IsoC (human 4-1BB on cells [2]) [pg/mL]	MAX IFNγ release, T cells + MOLP-8 + REGN5458 (human 4-1BB on cells [2]) [pg/mL]	MAX IFNγ release, T cells + NALM-6 (human 4-1BB on cells [2]) [pg/mL]	EC50 of luciferase activity, HEK293/NFkB-Luc/h4-1BB reporter + OPM2 (human 4-1BB on cells [3]) [nM]	MAX luciferase activity, HEK293/NFkB-Luc/h4-1BB reporter + HEK293/CD20 (human 4-1BB on cells [3]) [RLU]	MAX luciferase activity, HEK293/NFkB-Luc/h4-1BB reporter + HEK293/CD20/CD38 (human 4-1BB on cells [3]) [RLU]	MAX luciferase activity, HEK293/NFkB-Luc/h4-1BB reporter + MOLP-8 (human 4-1BB on cells [3]) [RLU]	MAX luciferase activity, HEK293/NFkB-Luc/h4-1BB reporter + OPM2 (human 4-1BB on cells [3]) [RLU]	also measured
B1	0.0607	0.133	0.0717	52	912	96	79	205	0.0526	0.0725	1570	5270	161	3410	658	0.0219	1e+06	2.4e+06	2.2e+06	2.1e+06	EC50 of IFNγ release, T cells + NALM-6 (human 4-1BB on cells [2]): 0.0419 nM; 100 nM h4-1BB.mmH Bind (RU) [4]: 107 RU; Kd [4]: 13.8 nM; koff [4]: 0.00494 s⁻¹; kon [4]: 358000 M⁻¹ s⁻¹; t½ [4]: 2.3 min; 100 nM h4-1BB.mFc Bind (RU) [5]: 283 RU; Kd [5]: 0.86 nM; koff [5]: 0.000177 s⁻¹; kon [5]: 206000 M⁻¹ s⁻¹; t½ [5]: 65.3 min; 100 nM Ab Bind (RU) [6]: 234 RU; Kd [6]: 0.716 nM; koff [6]: 0.000308 s⁻¹; kon [6]: 430000 M⁻¹ s⁻¹; t½ [6]: 37.6 min
B2	0.0453	0.0833	0.0723	57	709	90	62	169	0.0874	0.102	1450	6820	85	3890	651	0.018	1.1e+06	2.4e+06	2.2e+06	2.1e+06	EC50 of IL-2 release, T cells + MOLP-8 + IsoC (human 4-1BB on cells [1]): 0.0361 nM; 100 nM h4-1BB.mmH Bind (RU) [4]: 101 RU; Kd [4]: 14.8 nM; koff [4]: 0.00474 s⁻¹; kon [4]: 319000 M⁻¹ s⁻¹; t½ [4]: 2.4 min; 100 nM h4-1BB.mFc Bind (RU) [5]: 267 RU; Kd [5]: 1.2 nM; koff [5]: 0.000205 s⁻¹; kon [5]: 171000 M⁻¹ s⁻¹; t½ [5]: 56.3 min; 100 nM Ab Bind (RU) [6]: 232 RU; Kd [6]: 0.717 nM; koff [6]: 0.000337 s⁻¹; kon [6]: 470000 M⁻¹ s⁻¹; t½ [6]: 34.3 min
